Reference: paper PMC7145599, “Cooperative DNA binding by proteins through DNA shape complementarity” (Nucleic Acids Research, 2019)

Experiments:
[1] = system: Xis-Arg39Ala (phage lambda); assay: EMSA; details: no Fis; cooperative; EMSA: 20 mM HEPES pH 7.5, 0.1 M NaCl, 5% glycerol, 500 ug/ml BSA, 1 mM EDTA, 1 mM DTT, 25 C; competitor 50 ug/ml poly dI/dC (34 bp), 5 ug/ml poly dI/dC (Fig 2) …
[2] = system: Xis-Arg39Lys (phage lambda); assay: EMSA; details: no Fis; stepwise, non-cooperative; EMSA: 20 mM HEPES pH 7.5, 0.1 M NaCl, 5% glycerol, 500 ug/ml BSA, 1 mM EDTA, 1 mM DTT, 25 C; competitor 50 ug/ml poly dI/dC (34 bp), 5 ug/ml poly dI/dC (Fig 2) …
[3] = target: Fis;Xis-wt (phage lambda) (UniProt P0A6R3); assay: EMSA; details: apparent Kd of Xis for Fis-bound DNA; 4 nM Fis; EMSA: 20 mM HEPES pH 7.5, 0.1 M NaCl, 5% glycerol, 500 ug/ml BSA, 1 mM EDTA, 1 mM DTT, 25 C; competitor 50 ug/ml poly dI/dC (34 bp), 5 ug/ml poly dI/dC (Fig 2) …
[4] = target: T1, Fis;Xis1-55 (Escherichia coli?;phage lambda, UniProt P0A6R3;P03699 1-98;1-55, |C28S); assay: X-ray crystallography; FX1-2-1Xis, 3.60 A; Xis at X2; EMSA: 20 mM HEPES pH 7.5, 0.1 M NaCl, 5% glycerol, 500 ug/ml BSA, 1 mM EDTA, 1 mM DTT, 25 C; competitor 50 ug/ml poly dI/dC (34 bp), 5 ug/ml poly dI/dC (Fig 2); details: protein: recombinant;recombinant; tags: ;; chain copies: 2;1
[5] = target: Fis;Xis1-55 (two protomers) (Escherichia coli?;phage lambda, UniProt P0A6R3;P03699 1-98;1-55, |C28S); assay: X-ray crystallography; FX1-2-2Xis, 3.30 A; second Xis over X1 in reverse orientation; EMSA: 20 mM HEPES pH 7.5, 0.1 M NaCl, 5% glycerol, 500 ug/ml BSA, 1 mM EDTA, 1 mM DTT, 25 C; competitor 50 ug/ml poly dI/dC (34 bp), 5 ug/ml poly dI/dC (Fig 2); details: protein: recombinant;recombinant; tags: ;; chain copies: 2;2
[6] = target: T1, Fis;Xis1-55; assay: X-ray crystallography; FX2, 2.7 A; EMSA: 20 mM HEPES pH 7.5, 0.1 M NaCl, 5% glycerol, 500 ug/ml BSA, 1 mM EDTA, 1 mM DTT, 25 C; competitor 50 ug/ml poly dI/dC (34 bp), 5 ug/ml poly dI/dC (Fig 2); details: protein: recombinant;recombinant; tags: ;; chain copies: 2;1
[7] = target: T1, Fis;Xis1-55; assay: X-ray crystallography (Br anomalous); EMSA: 20 mM HEPES pH 7.5, 0.1 M NaCl, 5% glycerol, 500 ug/ml BSA, 1 mM EDTA, 1 mM DTT, 25 C; competitor 50 ug/ml poly dI/dC (34 bp), 5 ug/ml poly dI/dC (Fig 2); details: protein: recombinant;recombinant; tags: ;; chain copies: 2;1
[8] = target: the molecule itself; assay: crystal structure; Fis dimer and Xis^1-55 co-bound to 27 bp DNA duplexes (FX2, FX1-2-1Xis, FX1-2-2Xis); complexes formed in 20 mM Tris-HCl pH 7.5, 200 mM Na acetate; crystals grown at 4°C in 0.1 M HEPES pH 7-7.5, 15% PEG4000

## attR 263 bp
[1]
  binding signal (fold lower affinity than Xis-wt): 15
[2]
  binding signal (fold lower affinity than Xis-wt): 10

## F-X2 34 bp (CA, native)
[3]
  Kd: 400 nM

B1: FX1-2 27 bp (dsDNA)
DNA 1: AATGTTGTGTTTTTAACAGACTACATT
DNA 2: AATGTAGTCTGTTAAAAACACAACATT
[4]
  binding result: binds
[5]
  binding result: binds

B2: FX2 27 bp (dsDNA)
DNA 1: AATTTTGCATAAAAAACAGACTACATT
DNA 2: AATGTAGTCTGTTTTTTATGCAAAATT
[6]
  binding result: binds

B3: FX1-2 27 bp 5-BrdU (dsDNA)
DNA 1: AATGTTGTGTTTTTAACAGACTACATT
DNA 2: AATGTAGTCTGTTAAAAACACAACATT
modifications: 5-bromodeoxyuridine at asterisked T positions (incl. nt 8 and 12 from the central T)
[7]
  binding result: binds

B4: Xis^1-55 (phage lambda Xis residues 1-55 with a cysteine to serine substitution at residue 28) (domain or fragment, UniProt P03699 1-55, looked up)
chain: MYLTLQEWNARQRRPRSLETVRRWVRESRIFPPPVKDGREYLFHESAVKVDLNRP
notes: Used for crystallography; The full-length Cys28Ser xis gene (pRJ2178, pET11a) was used for the gel shift assays on DNA, which are not written here; also called Xis protomer; Xis monomer
[8]
  binding result: binds

B5: Escherichia coli Fis protein (natural protein)
chain: MFEQRVNSDVLTVSTVNSQDQVTQKPLRDSVKQALKNYFAQLNGQDVNDLYELVLAEVEQPLLDMVMQYTRGNQTRAALMMGINRGTLRKKLKKYGMN
notes: Fis, bacterial nucleoid / DNA architectural protein of Escherichia coli; the N-terminal beta-hairpin arms are not resolved in the crystals; also called Fis dimer
[8]
  stoichiometry N: 2
